Measured values from patent US20220289850 (published 2022).

Experiments:
C1q = C1q (human, UniProt P02745); assay: other, up to 30 ug/mL
human integrin avb8 = molecular target: T1, human integrin avb8 (human); assay: SPR
T1 chain 1: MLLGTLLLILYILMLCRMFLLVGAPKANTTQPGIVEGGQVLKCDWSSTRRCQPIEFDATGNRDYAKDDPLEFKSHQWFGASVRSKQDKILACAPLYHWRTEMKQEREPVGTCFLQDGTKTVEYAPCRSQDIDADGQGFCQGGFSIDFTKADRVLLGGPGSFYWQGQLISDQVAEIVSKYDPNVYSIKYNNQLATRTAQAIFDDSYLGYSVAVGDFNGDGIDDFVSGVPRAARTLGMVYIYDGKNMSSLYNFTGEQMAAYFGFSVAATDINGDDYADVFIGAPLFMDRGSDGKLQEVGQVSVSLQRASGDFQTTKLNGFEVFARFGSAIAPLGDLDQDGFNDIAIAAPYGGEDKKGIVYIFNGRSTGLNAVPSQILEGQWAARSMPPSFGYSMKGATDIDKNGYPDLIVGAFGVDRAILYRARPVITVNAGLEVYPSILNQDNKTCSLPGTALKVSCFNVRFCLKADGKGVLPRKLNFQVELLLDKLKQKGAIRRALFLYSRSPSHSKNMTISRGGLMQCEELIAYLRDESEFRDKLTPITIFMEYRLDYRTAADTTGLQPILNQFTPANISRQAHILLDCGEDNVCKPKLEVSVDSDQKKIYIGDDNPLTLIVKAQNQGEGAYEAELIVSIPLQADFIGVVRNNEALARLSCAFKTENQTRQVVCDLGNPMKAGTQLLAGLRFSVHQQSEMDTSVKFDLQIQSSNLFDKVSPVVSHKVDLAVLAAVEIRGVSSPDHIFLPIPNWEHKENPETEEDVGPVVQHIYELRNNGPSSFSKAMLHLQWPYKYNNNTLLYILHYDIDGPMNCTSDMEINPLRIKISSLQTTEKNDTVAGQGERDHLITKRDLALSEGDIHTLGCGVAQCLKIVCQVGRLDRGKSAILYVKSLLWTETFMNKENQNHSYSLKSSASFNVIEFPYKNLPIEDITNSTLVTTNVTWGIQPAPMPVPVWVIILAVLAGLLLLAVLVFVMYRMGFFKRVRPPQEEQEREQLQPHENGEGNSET
T1 chain 2: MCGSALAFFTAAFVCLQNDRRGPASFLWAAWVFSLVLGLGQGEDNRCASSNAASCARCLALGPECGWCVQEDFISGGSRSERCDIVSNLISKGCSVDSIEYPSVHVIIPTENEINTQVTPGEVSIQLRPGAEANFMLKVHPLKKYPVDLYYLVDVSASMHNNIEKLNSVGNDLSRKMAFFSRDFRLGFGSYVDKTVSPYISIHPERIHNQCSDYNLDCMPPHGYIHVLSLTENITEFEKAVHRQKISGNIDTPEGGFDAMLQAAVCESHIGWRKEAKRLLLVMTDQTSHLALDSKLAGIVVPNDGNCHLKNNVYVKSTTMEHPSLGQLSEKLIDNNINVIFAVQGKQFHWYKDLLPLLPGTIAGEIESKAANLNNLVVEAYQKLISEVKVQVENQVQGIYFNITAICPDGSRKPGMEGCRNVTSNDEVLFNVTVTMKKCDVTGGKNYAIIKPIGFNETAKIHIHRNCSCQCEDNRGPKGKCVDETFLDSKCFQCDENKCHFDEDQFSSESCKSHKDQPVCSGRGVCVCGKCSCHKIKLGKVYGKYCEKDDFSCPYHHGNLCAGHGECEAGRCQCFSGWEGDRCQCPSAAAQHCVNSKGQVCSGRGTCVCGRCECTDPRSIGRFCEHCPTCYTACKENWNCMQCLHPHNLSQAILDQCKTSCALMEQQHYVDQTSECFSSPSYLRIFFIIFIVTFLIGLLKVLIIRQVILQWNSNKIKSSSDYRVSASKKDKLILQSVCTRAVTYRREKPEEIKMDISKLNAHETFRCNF

Sequence of C1q (P02745 23-245, chain 1 of 3): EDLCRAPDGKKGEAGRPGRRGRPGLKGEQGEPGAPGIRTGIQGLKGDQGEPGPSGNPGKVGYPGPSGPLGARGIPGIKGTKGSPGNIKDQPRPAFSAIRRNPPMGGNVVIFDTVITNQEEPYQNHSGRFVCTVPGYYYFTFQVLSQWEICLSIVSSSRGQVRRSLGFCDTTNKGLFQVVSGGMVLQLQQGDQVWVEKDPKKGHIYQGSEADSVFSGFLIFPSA
Sequence of C1q (P02746 28-253, chain 2 of 3, further chain): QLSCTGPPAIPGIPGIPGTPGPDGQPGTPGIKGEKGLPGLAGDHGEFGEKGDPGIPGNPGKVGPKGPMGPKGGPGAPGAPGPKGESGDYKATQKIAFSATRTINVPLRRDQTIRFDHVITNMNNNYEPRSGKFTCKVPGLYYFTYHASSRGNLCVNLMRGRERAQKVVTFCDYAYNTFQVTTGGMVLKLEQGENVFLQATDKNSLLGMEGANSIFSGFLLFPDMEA
Sequence of C1q (P02747 29-245, chain 3 of 3, further chain): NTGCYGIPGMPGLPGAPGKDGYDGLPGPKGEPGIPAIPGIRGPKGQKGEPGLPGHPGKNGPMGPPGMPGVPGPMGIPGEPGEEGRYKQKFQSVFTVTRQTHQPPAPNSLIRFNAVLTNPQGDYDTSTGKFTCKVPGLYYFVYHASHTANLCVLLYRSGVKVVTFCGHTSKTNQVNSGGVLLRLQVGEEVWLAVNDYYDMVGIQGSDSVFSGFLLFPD

B1: ADWA11 2.4 IgG (antibody)
chain 1: EVQLVESGGGLVQPGGSLRLSCAASGFNIKDYYMNWVRQAPGKGLEWVGWIDPDQGNTIYEPKFQGRFTISADTSKNSAYLQMNSLRAEDTAVYYCARRLLMDYWGQGTLVTVSSASTKGPSVFPLAPSSKSTSGGTAALGCLVKDYFPEPVTVSWNSGALTSGVHTFPAVLQSSGLYSLSSVVTVPSSSLGTQTYICNVNHKPSNTKVDKKVEPKSCDKTHTCPPCPAPEAAGAPSVFLFPPKPKDTLMISRTPEVTCVVVDVSHEDPEVKFNWYVDGVEVHNAKTKPREEQYNSTYRVVSVLTVLHQDWLNGKEYKCKVSNKALPAPIEKTISKAKGQPREPQVYTLPPSREEMTKNQVSLTCLVKGFYPSDIAVEWESNGQPENNYKTTPPVLDSDGSFFLYSKLTVDKSRWQQGNVFSCSVMHEALHNHYTQKSLSLSPGK
chain 2: DIQMTQSPSSLSASVGDRVTITCRSTKSLSHFNGNTYLFWYQQKPGKAPKRLIYYMSSLASGVPSRFSGSGSGTDFTLTISSLQPEDFATYYCQQSLEYPFTFGGGTKVEIKRTVAAPSVFIFPPSDEQLKSGTASVVCLLNNFYPREAKVQWKVDNALQSGNSQESVTEQDSKDSTYSLSSTLTLSKADYEKHKVYACEVTHQGLSSPVTKSFNRGEC
B1: no binding (C1q).

B2: ADWA11 2.4 Fab (antibody, V domains shown)
VH: EVQLVESGGGLVQPGGSLRLSCAASGFNIKDYYMNWVRQAPGKGLEWVGWIDPDQGNTIYEPKFQGRFTISADTSKNSAYLQMNSLRAEDTAVYYCARRLLMDYWGQGTLVTVSS
VL: DIQMTQSPSSLSASVGDRVTITCRSTKSLSHFNGNTYLFWYQQKPGKAPKRLIYYMSSLASGVPSRFSGSGSGTDFTLTISSLQPEDFATYYCQQSLEYPFTFGGGTKVEIK
B2 was tested, and the Kd (human integrin avb8) was < 0.1 nM.
